Legend:
[1] = target: T1, cynomolgus CD73 on the cell surface (293T/17-cynoCD73 cells) (cynomolgus (Macaca fascicularis), UniProt P21589 27-547 (human entry)); assay: flow cytometry on 293T/17-Cyno CD73 cells
T1 construct: it is an ecto-domain with a His tag
T1 chain: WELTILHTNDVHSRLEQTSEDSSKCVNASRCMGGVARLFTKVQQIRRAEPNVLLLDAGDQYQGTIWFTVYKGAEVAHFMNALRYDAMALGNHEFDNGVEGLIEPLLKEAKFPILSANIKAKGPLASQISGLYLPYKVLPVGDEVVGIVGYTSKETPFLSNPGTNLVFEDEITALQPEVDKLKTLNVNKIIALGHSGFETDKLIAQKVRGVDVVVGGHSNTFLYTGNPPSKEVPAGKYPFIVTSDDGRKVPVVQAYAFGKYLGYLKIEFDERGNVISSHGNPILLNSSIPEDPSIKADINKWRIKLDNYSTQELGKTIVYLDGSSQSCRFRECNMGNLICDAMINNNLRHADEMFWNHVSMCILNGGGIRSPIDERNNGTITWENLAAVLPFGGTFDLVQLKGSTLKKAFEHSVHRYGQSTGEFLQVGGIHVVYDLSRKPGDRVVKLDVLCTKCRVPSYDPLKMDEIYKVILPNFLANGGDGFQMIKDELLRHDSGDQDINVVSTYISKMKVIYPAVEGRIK
Procedure: (§1) 2×10⁶ cells resuspended in PBS buffer were distributed into 96-well plates and incubated with gradient diluted humanized antibodies for 1 h at refrigerator 4° C. or on ice, then the cells was centrifuged for 3 min 1500 rpm at 4° C. and washed three times by PBS, and diluted APC-labeled goat anti-human polyclonal antibody (Biolegend) were incubated for 30 min at refrigerator 4° C. Finally, the cells were washed three times with PBS as described above and analyzed on MACSQuant flow cytometer. GraphPad Prism software was used to generate data graphs and statistical affinity data.
(§2) The samples to be tested were incubated for 1 h at 4° C. after gradient dilution. After washing, 100 μL of APC-labeled secondary antibody was added to each well and incubated for 30 min. After washing, detecting on machine and the fluorescence value was read. GraphPad Prism software was used to generate data graphs and statistical affinity data.

[2] = target: T1, cynomolgus CD73 on the cell surface …; assay: flow cytometry on 293T/17 cells expressing cynoCD73, APC-labelled goat anti-human antibody, MFI
Procedure: as §1, §2

[3] = target: T2, human CD73 ecto-domain recombinant protein (huCD73) (human, UniProt P21589 27-547); assay: indirect ELISA, coated huCD73 recombinant protein
T2 construct: also called soluble huCD73; soluble recombinant CD73
T2 sequence: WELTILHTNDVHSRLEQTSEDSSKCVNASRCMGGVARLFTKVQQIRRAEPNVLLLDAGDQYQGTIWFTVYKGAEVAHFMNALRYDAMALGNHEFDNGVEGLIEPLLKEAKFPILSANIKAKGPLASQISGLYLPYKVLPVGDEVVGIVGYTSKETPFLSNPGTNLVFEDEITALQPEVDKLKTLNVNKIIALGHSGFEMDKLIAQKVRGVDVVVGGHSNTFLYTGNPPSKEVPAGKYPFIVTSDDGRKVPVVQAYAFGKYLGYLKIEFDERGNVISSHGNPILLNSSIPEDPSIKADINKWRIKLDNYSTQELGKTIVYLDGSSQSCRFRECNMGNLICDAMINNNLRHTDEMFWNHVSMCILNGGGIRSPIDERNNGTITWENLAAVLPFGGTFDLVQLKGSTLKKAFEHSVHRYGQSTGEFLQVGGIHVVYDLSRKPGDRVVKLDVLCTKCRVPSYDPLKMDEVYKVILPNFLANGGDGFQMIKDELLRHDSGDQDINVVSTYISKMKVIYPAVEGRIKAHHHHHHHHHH
Procedure: (§3) Incubated with gradient diluted 100 μL/well of antibodies for 1 h at room temperature. After the plates were washed 3 times with 200 ul/well of PBST, 100 ul of diluted HRP-labeled secondary antibody at a ratio of 1:5000 was added to each well, and the plates were incubated for 1 hour at room temperature. The plates were washed 3 times with 200 ul/well of PBST, 100 ul of TMB was added to each well and reacted for 5 minutes at room temperature in the dark. […] read the OD value. The affinity of humanized antibodies and parent antibodies were similar to the antigen (table 9).

[4] = target: T2, human CD73 ecto-domain recombinant …; assay: indirect ELISA, plate coated with 1 ug/ml huCD73 recombinant protein, HRP-labelled secondary antibody, RFU
Procedure: as §3

[5] = target: T1, cynomolgus CD73 on the cell surface …; assay: cell-based or functional assay
[6] = target: T2, human CD73 ecto-domain recombinant …; assay: indirect ELISA, coated huCD73 recombinant protein, curve fit
Procedure: as §3

[7] = target: T1, cynomolgus CD73 on the cell surface …; assay: flow cytometry on 293T/17-Cyno CD73 cells, curve fit
Procedure: as §1, §2

B1: JB94H1L3 (antibody, human IgG1, kappa)
heavy: not shown
light: DIQMTQSPSSLSASVGDRVTITCKASQDINTYLSWFQQKPGKSPKSLIYRSNILVDGVPSRFSGSGSGQDYTLTISSLQPEDFAIYYCLQYDDFPYTFGQGTKLEIKRTVAAPSVFIFPPSDEQLKSGTASVVCLLNNFYPREAKVQWKVDNALQSGNSQESVTEQDSKDSTYSLSSTLTLSKADYEKHKVYACEVTHQGLSSPVTKSFNRGEC
notes: Humanized antibody of the 94 clone, human IgG1 / kappa
Which EC50 [1] does the source give for B1 here?
Its EC50 is 5.42 nM.

What about the “EC50 (read off the curve)” value [2] of the same binder?
The value was ~5 nM.

What about the EC50 [3] of the same binder?
The EC50 was 0.0289 nM.

What about the “EC50 (read off the curve)” value [4] of the same binder?
The value was ~0.03 µg/mL.

What about the “IC50, blockade of 5'exonuclease activity on 293T/17-Cyno CD73 cells” value [5] of the same binder?
The value was 0.017 nM.

And the Bottom [6]?
Its Bottom is 48.7 OD value.

What about the Top [6] of the same binder?
The Top was 8290 OD value.

What about the Bottom [7] of the same binder?
Its Bottom is 1.51 fluorescence.

What about the Top [7] of the same binder?
The Top was 78.7 fluorescence.

From US20220064322A1 (JACOBIO PHARMACEUTICALS, published 2022)
